Assay results taken from article doi:10.1101/2022.04.18.488656, “HNRNPH1 destabilizes the G-quadruplex structures formed by G-rich RNA sequences that regulate the alternative splicing of an oncogenic fusion transcript”.

T1: HNRNPH1 full-length (UniProt P31943 1-449)
T1 sequence: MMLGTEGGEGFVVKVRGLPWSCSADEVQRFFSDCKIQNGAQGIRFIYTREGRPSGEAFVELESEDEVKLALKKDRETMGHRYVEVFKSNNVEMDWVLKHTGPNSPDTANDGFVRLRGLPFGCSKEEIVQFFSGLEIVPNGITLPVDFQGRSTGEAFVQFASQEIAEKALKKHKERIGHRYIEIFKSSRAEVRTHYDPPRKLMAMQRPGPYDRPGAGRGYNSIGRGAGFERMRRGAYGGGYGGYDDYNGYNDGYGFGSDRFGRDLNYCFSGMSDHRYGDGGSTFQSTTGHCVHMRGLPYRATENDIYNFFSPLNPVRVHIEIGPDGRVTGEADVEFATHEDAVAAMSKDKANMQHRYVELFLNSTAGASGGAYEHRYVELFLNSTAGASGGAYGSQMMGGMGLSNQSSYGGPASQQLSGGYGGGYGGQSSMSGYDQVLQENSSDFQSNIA

T2: HNRNPF (UniProt P52597 1-415)
T2 sequence: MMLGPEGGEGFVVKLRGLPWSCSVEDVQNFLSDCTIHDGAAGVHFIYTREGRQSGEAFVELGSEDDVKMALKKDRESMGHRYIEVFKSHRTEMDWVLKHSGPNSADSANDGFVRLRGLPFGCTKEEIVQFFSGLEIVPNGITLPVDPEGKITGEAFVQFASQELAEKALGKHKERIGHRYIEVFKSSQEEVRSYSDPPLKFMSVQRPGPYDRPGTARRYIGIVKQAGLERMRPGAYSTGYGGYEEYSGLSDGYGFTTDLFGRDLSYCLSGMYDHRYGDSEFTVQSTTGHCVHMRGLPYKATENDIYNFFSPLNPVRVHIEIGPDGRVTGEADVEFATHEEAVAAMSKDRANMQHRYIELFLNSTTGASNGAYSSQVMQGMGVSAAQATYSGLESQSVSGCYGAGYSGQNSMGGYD

T3: HNRNPH1 qRRM1-2 (UniProt P31943 11-188)
T3 sequence: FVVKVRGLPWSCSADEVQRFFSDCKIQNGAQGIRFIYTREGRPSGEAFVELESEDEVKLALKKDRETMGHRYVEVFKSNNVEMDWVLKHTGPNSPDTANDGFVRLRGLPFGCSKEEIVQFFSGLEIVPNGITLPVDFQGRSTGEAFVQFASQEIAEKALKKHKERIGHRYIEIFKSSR


What was measured:
HNRNPH1 full-length = biological target: T1, HNRNPH1 full-length; experiment: BLI; 150 mM KCl (G4); BLI: 10 mM Tris-HCl pH 7.4, 150 mM KCl, 0.005% P-20, 1 mM EDTA; EMSA: 10 mM Tris-HCl pH 7.4, 1 mM EDTA, 150 mM KCl, room temp, 3 nM RNA; FRET: same Tris/EDTA with 25 mM KCl, room temp; settings: protein: recombinant, tags: FLAG, label: 5'-biotin
HNRNPF = biological target: T2, HNRNPF; experiment: BLI; 150 mM KCl; BLI: 10 mM Tris-HCl pH 7.4, 150 mM KCl, 0.005% P-20, 1 mM EDTA; EMSA: 10 mM Tris-HCl pH 7.4, 1 mM EDTA, 150 mM KCl, room temp, 3 nM RNA; FRET: same Tris/EDTA with 25 mM KCl, room temp; settings: protein: recombinant; label: 5'-biotin; parallel two-tier G4, intramolecular
HNRNPH1 qRRM1-2 = biological target: T3, HNRNPH1 qRRM1-2; experiment: as above; settings: protein: recombinant; label: 5'-biotin; parallel two-tier G4, intramolecular
[1] = parallel two-tier G4, intramolecular

Binder	Kd (HNRNPH1 full-length; parallel two-tier G4)	Kd (HNRNPH1 full-length; [1])	Kd (HNRNPF)	Kd (HNRNPH1 qRRM1-2)
GGUGGGCGGGGAGGAGGACGCGGUGGAAU (structured_RNA) [rG2]	3.1 ± 0.7 nM	–	–	–
GGGCGGGGAGGAGGACGCGGUGGAAUGGG (structured_RNA) [rG3]	–	1.39 ± 0.54 nM	0.35 nM	4 ± 0.7 nM
ACCGGGGCAGGGGAAGAGGGGGAUU (structured_RNA) [rG1]	–	1.08 ± 0.53 nM	0.34 nM	6 ± 0.8 nM
